Source: patent US20210024903A1 (Pfizer, published 2021)

Experiments:
[1] = biological target: Commercial, Control Toxin B wt (List Biologicals) (Clostridium difficile, UniProt P18177 2-2366); assay: dot blot, non-denaturing
[2] = biological target: wild-type C. difficile toxin B (TcdB wt, from List Bio) (C. difficile strain 630, UniProt P18177 2-2366); assay: dot blot, nondenaturing
wild-type C. difficile toxin B (TcdB wt, from List Bio), sequence (P18177 2-2366 limits assumed): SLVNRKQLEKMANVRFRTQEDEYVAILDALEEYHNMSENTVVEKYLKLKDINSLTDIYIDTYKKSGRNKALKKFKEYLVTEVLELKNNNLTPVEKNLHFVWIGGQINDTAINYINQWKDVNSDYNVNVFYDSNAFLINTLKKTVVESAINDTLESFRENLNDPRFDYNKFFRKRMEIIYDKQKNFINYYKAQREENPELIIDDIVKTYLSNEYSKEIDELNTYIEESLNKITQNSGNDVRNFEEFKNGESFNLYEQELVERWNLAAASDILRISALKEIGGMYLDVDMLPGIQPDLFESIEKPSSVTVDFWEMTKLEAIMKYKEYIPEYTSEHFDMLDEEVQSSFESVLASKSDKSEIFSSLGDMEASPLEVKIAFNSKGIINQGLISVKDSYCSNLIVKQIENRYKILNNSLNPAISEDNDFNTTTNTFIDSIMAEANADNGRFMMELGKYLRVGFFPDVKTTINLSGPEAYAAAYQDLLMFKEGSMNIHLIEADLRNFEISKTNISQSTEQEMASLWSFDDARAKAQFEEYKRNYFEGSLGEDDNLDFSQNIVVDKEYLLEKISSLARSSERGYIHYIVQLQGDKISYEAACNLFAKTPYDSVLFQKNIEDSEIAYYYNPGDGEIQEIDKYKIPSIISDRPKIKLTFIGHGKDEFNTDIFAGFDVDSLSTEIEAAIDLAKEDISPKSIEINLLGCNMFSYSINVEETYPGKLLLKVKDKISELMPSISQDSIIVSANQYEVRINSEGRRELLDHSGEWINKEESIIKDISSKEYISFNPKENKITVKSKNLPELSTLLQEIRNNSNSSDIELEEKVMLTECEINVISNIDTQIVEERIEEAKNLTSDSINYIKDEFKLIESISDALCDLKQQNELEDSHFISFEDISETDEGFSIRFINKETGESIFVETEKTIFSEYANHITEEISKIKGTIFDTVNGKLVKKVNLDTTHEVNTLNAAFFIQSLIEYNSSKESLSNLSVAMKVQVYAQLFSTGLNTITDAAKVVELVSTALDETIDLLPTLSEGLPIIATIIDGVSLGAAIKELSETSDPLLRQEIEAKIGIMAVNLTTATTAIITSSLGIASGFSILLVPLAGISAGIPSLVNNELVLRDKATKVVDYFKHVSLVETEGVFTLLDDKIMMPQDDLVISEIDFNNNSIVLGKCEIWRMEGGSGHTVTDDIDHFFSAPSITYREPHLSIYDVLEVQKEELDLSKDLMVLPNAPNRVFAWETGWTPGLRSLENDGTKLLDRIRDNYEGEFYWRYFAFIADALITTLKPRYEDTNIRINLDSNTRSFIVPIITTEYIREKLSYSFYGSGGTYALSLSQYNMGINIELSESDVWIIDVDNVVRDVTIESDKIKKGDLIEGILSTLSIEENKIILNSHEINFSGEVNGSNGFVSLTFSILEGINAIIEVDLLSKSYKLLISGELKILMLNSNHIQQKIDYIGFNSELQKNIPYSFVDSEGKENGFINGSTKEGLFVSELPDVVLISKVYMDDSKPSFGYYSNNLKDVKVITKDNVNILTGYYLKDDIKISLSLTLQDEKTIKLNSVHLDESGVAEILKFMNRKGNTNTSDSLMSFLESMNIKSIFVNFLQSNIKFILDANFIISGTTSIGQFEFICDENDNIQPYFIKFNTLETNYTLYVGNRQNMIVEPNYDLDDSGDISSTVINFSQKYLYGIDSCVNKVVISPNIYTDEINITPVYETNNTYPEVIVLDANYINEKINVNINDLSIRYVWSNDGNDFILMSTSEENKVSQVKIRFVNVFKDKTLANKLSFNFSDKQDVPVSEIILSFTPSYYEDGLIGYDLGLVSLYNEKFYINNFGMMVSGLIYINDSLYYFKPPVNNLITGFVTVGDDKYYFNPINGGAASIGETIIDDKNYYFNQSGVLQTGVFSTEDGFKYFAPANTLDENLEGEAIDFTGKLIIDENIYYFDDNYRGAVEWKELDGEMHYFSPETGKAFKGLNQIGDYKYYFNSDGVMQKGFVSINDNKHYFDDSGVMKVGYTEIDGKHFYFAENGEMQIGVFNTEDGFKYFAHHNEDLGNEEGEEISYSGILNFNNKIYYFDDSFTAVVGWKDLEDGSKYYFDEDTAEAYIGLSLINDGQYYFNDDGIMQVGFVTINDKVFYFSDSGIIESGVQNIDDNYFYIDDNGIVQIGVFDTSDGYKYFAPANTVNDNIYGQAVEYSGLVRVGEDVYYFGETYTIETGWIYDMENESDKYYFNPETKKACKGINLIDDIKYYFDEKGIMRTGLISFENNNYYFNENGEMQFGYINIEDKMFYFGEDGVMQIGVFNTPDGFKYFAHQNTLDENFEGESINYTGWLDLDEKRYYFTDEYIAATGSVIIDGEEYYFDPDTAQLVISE

Commercial, Control Toxin B wt (List Biologicals), sequence (P18177 2-2366 limits assumed): as above

B1: B9-30 (antibody, V domains shown)
VH: QVQLQQPGAEVVKPGAPVKLSCKASGYPFTNYWMNWVKQRPGRGLEWIGRIDPSNSEIYYNQKFKDKATLTVDKSSSTAYIQLSSLTSEDSAVYYCASGHYGSIFAYWGQGTTLTVSS
VL: VQITQSPSYLAASPGETITINCRASKSISKYLAWYQEKPGKTNKLLIYSGSTLQSGIPSRFSGSRSGTDFTLIISSLEPEDSAMYYCQQHNEYPLTFGAGTKLELKR
- binding result [1]: binds

B2: B9-30 mAb (antibody, V domains shown)
VH: B1 VH
VL: B1 VL
- binding result [2]: binds
